Where a chain is given by its changes, count along the chain named. Bridge positions count the residues as written; N and C are the ends. Peptide text beside a SMILES is read from it.

A short description of data set [1]: Liposome centrifugation assay, POPG liposomes. The format is physicochemical. As to conditions: LUVs extruded through 0.1 μm filters, 10 mM HEPES pH 7.4, 150 mM NaCl; 10 μM toxin, 1 h room temperature, 30 min at 100,000 g; unbound toxin in supernatant by RP-HPLC; fit to partition equilibrium equation. How it is done: (§1) To investigate whether the micelle-binding interface identified by NMR-CSM faithfully reports on the lipid-binding interface of the peptide we used a previously reported liposome centrifugation assay[30] to study the interaction between VSTx1 and phospholipids with different head groups. VSTx1 was incubated with liposomes of different composition, then the liposomes were pelleted using ultracentrifugation and the amount of unbound VSTx1 in the supernatant was determined using reverse-phase (RP) HPLC (Fig. 4a,b). Partition coefficients (Kp) for binding of VSTx1 to liposomes were calculated by fitting to the partition equilibrium equation (see Eqn (3) in Materials and Methods). The Kp for binding to 1-palmitoyl-2-oleoyl-sn-glycero-3-phosphoglycerol (POPG) liposomes was 2.4 × 10^5 while the Kp values for binding to POPC or 1-palmitoyl-2-oleoyl-sn-glycero-3-phosphoethanolamine (POPE) liposomes were close to 0 (both <10^2) (Fig. 4e).
Large unilamellar vesicles (LUVs) were prepared by drying lipids (POPG and/or POPC, 25 mg/mL) under nitrogen gas, drying the lipid pellet under vacuum, and resuspending the lipids by vortexing for 1 h in an aqueous buffer containing 10 mM HEPES pH 7.4, and 150 mM NaCl. Vesicles were extruded 20 times using 0.1 μm polycarbonate filters (Avanti Polar Lipids, Inc.). Aqueous solutions of the toxin (10 μM) were incubated with varying amounts of vesicles for 1 h at room temperature, then the vesicles were centrifuged for 30 min at 100,000 g before the toxin concentration in the aqueous phase was determined. Aqueous concentrations of VSTx1 were quantified by RP-HPLC using a monolithic C18 column (4.6 × 100 mm). The toxin was eluted with a linear gradient of 10–50% solvent B (0.046% TFA in acetonitrile) in solvent A (0.05% TFA in water) over 10 min at a flow rate of 3 ml/min. The partition coefficients (Kp) for the binding of VSTx1 to liposomes were calculated by fitting to the partition equilibrium equation: […]

Data set [2] can be described thus: Liposome centrifugation assay, liposomes with POPG content reduced by 25%. The format is physicochemical. The note with it: 10 mM HEPES pH 7.4, 150 mM NaCl, 10 μM toxin, 1 h room temperature, 30 min at 100,000 g, supernatant by RP-HPLC. As to the method:
as §1, with “The Kp for binding to 1-palmitoyl-2-oleoyl-sn-glycero-3-phosphoglycerol (POPG) liposomes was 2.4 × 10^5 while the Kp values for binding to POPC or 1-palmitoyl-2-oleoyl-sn-glycero-3-phosphoethanolamine (POPE) liposomes were close to 0 (both <10^2) (Fig. 4e).” left out
(§2) Large unilamellar vesicles (LUVs) were prepared by drying lipids (POPG and/or POPC, 25 mg/mL) under nitrogen gas, drying the lipid pellet under vacuum, and resuspending the lipids by vortexing for 1 h in an aqueous buffer containing 10 mM HEPES pH 7.4, and 150 mM NaCl. […] Aqueous solutions of the toxin (10 μM) were incubated with varying amounts of vesicles for 1 h at room temperature, then the vesicles were centrifuged for 30 min at 100,000 g before the toxin concentration in the aqueous phase was determined. Aqueous concentrations of VSTx1 were quantified by RP-HPLC using a monolithic C18 column (4.6 × 100 mm). […]

Data set [3] is described as follows: Liposome centrifugation assay, POPE liposomes. The format is physicochemical. As to conditions: 10 μM toxin, 1 h room temperature, 30 min at 100,000 g, supernatant by RP-HPLC, close to 0. How it is done:
as §1, with “The Kp for binding to 1-palmitoyl-2-oleoyl-sn-glycero-3-phosphoglycerol (POPG) liposomes was 2.4 × 10^5 while the Kp values for binding to POPC or 1-palmitoyl-2-oleoyl-sn-glycero-3-phosphoethanolamine (POPE) liposomes were close to 0 (both <10^2) (Fig. 4e).” left out
as §2

The nature of data set [4]: Liposome centrifugation assay, POPC liposomes. The format is physicochemical. As to conditions: LUVs, 10 mM HEPES pH 7.4, 150 mM NaCl; 10 μM toxin, 1 h room temperature, 30 min at 100,000 g; supernatant by RP-HPLC; close to 0. How it is done: as §1, with “The Kp for binding to 1-palmitoyl-2-oleoyl-sn-glycero-3-phosphoglycerol (POPG) liposomes was 2.4 × 10^5 while the Kp values for binding to POPC or 1-palmitoyl-2-oleoyl-sn-glycero-3-phosphoethanolamine (POPE) liposomes were close to 0 (both <10^2) (Fig. 4e).” left out
as §2

Another data set addresses T1, VSDK Q49A (UniProt Q9YDF8 19-160, Q49A).
T1 sequence: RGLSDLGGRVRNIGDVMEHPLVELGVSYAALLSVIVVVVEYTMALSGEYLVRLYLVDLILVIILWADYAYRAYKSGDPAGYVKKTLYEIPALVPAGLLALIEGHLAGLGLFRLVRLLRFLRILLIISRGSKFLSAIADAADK
Nature of the data set: pull-down. As to conditions: both partners purified.

For another data set, the target named is T2, VSDK R120A (UniProt Q9YDF8 19-160, R120A).
T2 sequence: T1 sequence with A44Q, R115A
Put plainly: pull-down. As to conditions: both partners purified.

Another data set deals with T3, VSDK E45A (UniProt Q9YDF8 19-160, E45A).
T3 sequence: T1 sequence with E40A, A44Q
Nature of the data set: pull-down. As to conditions: both partners purified.

For another data set, the target named is T4, VSDK Y46A (UniProt Q9YDF8 19-160, Y46A).
T4 sequence: T1 sequence with Y41A, A44Q
Nature of the data set: pull-down. As to conditions: both partners purified.

Another data set concerns the target T5, VSDK E107A (UniProt Q9YDF8 19-160, E107A).
T5 sequence: T1 sequence with A44Q, E102A
Put plainly: pull-down. As to conditions: both partners purified.

In another data set the target is T6, VSDK S51A (UniProt Q9YDF8 19-160, S51A).
T6 sequence: T1 sequence with A44Q, S46A
Put plainly: pull-down. The note with it: both partners purified.

The target of the next data set is T7, VSDK T47A (UniProt Q9YDF8 19-160, T47A).
T7 sequence: T1 sequence with T42A, A44Q
Nature of the data set: pull-down. The note with it: both partners purified.

The target of data set [5] is T8, isolated voltage-sensor domain of the voltage-gated potassium channel KvAP (VSDK), wild type (UniProt Q9YDF8 19-160).
T8 construct: also called WT VSDK; KvAP voltage sensor
T8 sequence: T1 sequence with A44Q
Nature of the data set: NMR titration. The note with it: both partners purified.

With `CSCC[C@@H]1NC(=O)[C@H](Cc2ccccc2)NC(=O)[C@H](CCCCN)NC(=O)CNC(=O)[C@@H](NC(=O)[C@H](CCC(=O)O)NC(=O)[C@@H](N)CO)CSSC[C@@H]2NC(=O)[C@@H]3CSSC[C@@H](C(=O)N[C@H](C(=O)N[C@@H](CC(C)C)C(=O)N[C@@H](C)C(=O)N[C@@H](CO)C(=O)N4CCC[C@H]4C(=O)N[C@@H](Cc4ccccc4)C(=O)O)C(C)C)NC(=O)[C@H](Cc4c[nH]c5ccccc45)NC(=O)[C@H](CCCCN)NC(=O)[C@H](Cc4c[nH]c5ccccc45)NC(=O)[C@H](CCCNC(=N)N)NC(=O)[C@H](CO)NC(=O)[C@H](CO)NC(=O)[C@H](CSSC[C@H](NC(=O)[C@H](CCCCN)NC(=O)[C@H](Cc4c[nH]c5ccccc45)NC1=O)C(=O)N[C@@H](CCCCN)C(=O)N[C@@H](CC(N)=O)C(=O)N[C@@H](CO)C(=O)N[C@@H](CC(N)=O)C(=O)N[C@@H](CC(=O)O)C(=O)N3)NC(=O)[C@H](C(C)C)NC(=O)[C@H](CC(C)C)NC(=O)[C@H](CC(=O)O)NC(=O)[C@H](CCCCN)NC2=O` [VSTx1] (H-SECGKFMWKCKNSNDCCKDLVCSSRWKWCVLASPF-OH; disulfide 3-17, 10-22, 16-29), the “Partition coefficient (Kp) for binding to POPG liposomes” value in data set [1] is reported as 2.4 × 10^5. Further, in [2], the “Partition coefficient (Kp), POPG content of liposomes reduced by 25%” value is given as 0.18 × 10^5. The “Partition coefficient (Kp) for binding to POPE liposomes” value in [3] is recorded as < 10^2. For the same molecule, in [4], the “Partition coefficient (Kp) for binding to POPC liposomes” value was < 10^2.

B1: VSTx1 (recombinant, wild type) (peptide)
chain: SECGKFMWKCKNSNDCCKDLVCSSRWKWCVLASPF
notes: also called WT VSTx1; spider-venom peptide VSTx1; not shown: His6, N-terminal, cleaved; MBP, N-terminal, cleaved
As usually defined, the Kd is the equilibrium constant for the complex coming apart. A low value points to tighter binding. Turning to B1, the “percent decrease in binding against wild-type VSDK” value with VSDK Q49A came out at 58%; with VSDK E45A, 65%; with VSDK E107A, 59%. In addition, the binding result in the data set with VSDK R120A, in the data set with VSDK Y46A, with VSDK S51A and with VSDK T47A was “binds” in each case. This molecule yielded a Kd in [5] of 140 µM.

The values above are taken from paper PMC5039624 (Scientific Reports, 2016).
